# B1: recombinant Wnt-5a: recombinant Wnt-5a protein (R&D Systems) (protein, UniProt P41221 62-380, looked up)
# Protein Wnt-5a: IIGAQPLCSQLAGLSQGQKKLCHLYQDHMQYIGEGAKTGIKECQYQFRHRRWNCSTVDNTSVFGRVMQIGSRETAFTYAVSAAGVVNAMSRACREGELSTCGCSRAARPKDLPRDWLWGGCGDNIDYGYRFAKEFVDARERERIHAKGSYESARILMNLHNNEAGRRTVYNLADVACKCHGVSGSCSLKTCWLQLADFRKVGDALKEKYDSAAAMRLNSRGKLVQVNSRFNSPTTQDLVYIDPSPDYCVRNESTGSLGTQGRLCNKTSEGMDGCELMCCGRGYDQFKTVQTERCHCKFHWCCYVKCKKCTEIVDQFVCK
# System: ERα
# Experiment: ERα protein expression by Western blot in stimulated MDA-MB-231 cells
# Assay type: cell-based, human
# Conditions: stimulation 24 and 48 hours, rWnt-5a 0.6 μg/ml, rWnt-3a 0.1 μg/ml, peptides 100 μM
# Description: Breast cancer cells were grown in 6 well plates, and stimulated with recombinant Wnt-5a protein (rW5a), the Wnt-5a derived Foxy-5 peptide (F5), recombinant Wnt-3a protein (rW3a), or a formylated random hexapeptide (Rdm) for 24 or 48 h. Following treatment cells were lysed and subjected to SDS-PAGE, transferred to nitrocellulose membranes and blotted for ERα expression. A: MDA-MB-231 cells stimulated with recombinant Wnt-5a, Foxy-5, Wnt-3a, Rdm. B: MDA-MB-468 cells stimulated with recombinant Wnt-5a or Foxy-5. C: 4T1 cells stimulated with recombinant Wnt-5a or Foxy-5. Positive controls (Pos) were included in order to confirm the correct band size for ERα. Two different positive controls were used: T47D cell lysates known to express ERα and MDA-MB-231 cells transiently transfected with a full length ERα plasmid, resulting in extremely high ERα expression (top row, right panel, third row, right panel).
# Stimulation of cells was performed with recombinant Wnt-5a (0.6 μg/ml) and recombinant Wnt-3a (0.1 μg/ml and in a control experiment, 0.6 μg/ml) (R&D Systems Abington, UK) for times as indicated. The Wnt-5a derived formylated hexapeptide, Foxy-5 (formyl-MDGCEL) (SEQ. ID. NO. 1) designed in the laboratory of the inventors, and a formylated random hexapeptide (formyl-MSADVG) (SEQ: ID: NO: 16) were either synthesized by Pepscan Presto (Lelystad, The Netherlands) or Inbiolabs (Tallinn, Estonia). The peptides were purified by RP-HPLC and mass spectrometry, and the >95% pure peptides were synthesized three times. Cells were treated with Foxy-5 or random peptide at a concentration of 100 μM for times as indicated. All other chemicals if not otherwise stated were purchased from Sigma Chemicals (St. Louis, Mo.).
# Cells were lysed in Triton lysis buffer (50 mM Tris (pH7.5), 1% Triton x-100, 140 mM NaCl, 0.5 mM EDTA, 0.5 MgCl2, 10 mM NaF) with the addition of fresh leupeptin (1 μg/ml), Pefabloc (2 mM), aprotinin (20 μg/ml) and Na3VO4 (4 mM). […] Scanning and densitometry was performed using a Bio-Rad (Hercules Calif.) GS-800 densitometer with Quantity One software. […]
molecule,measurement,value
B1,levels of ERα protein,increase

# Source: US20110124574A1, “RESTORATION OF ESTROGEN RECEPTOR-(ALPHA) ACTIVITY” (priority 2008, published 2011)
